The target of the experiment is trivalent Strep-Tactin-SpyCatcher.

This is an account of results in paper PMC6922461.

B1: Siglec-14 with N-terminal Strep-tag II, on THP-1 cells (receptor)
chain: SAWSHPQFEKEKPVYELQVQKSVTVQEGLCVLVPCSFSYPWRSWYSSPPLYVYWFRDGEIPYYAEVVATNNPDRRVKPETQGRFRLLGDVQKKNCSLSIGDARMEDTGSYFFRVERGRDVKYSYQQNKLNLEVTALIEKPDIHFLEPLESGRPTRLSCSLPGSCEAGPPLTFSWTGNALSPLDPETTRSSELTLTPRPEDHGTNLTCQVKRQGAQVTTERTVQLNVSYAPQNLAISIFFRNGTGTALRILSNGMSVPIQEGQSLFLACTVDSNPPASLSWFREGKALNPSQTSMSGTLELPNIGAREGGEFTCRVQHPLGSQHLSFILSVQRSSSSCICVTEKQQGSWPLVLTLIRGALMGAGFLLTYGLTWIYYTRCGGPQQSRAERPG
B1 showed an IL-8 secretion of THP-1 Siglec-14–Strep-tag II DAP12 cells against Strep-tag II–binding sites of trivalent generic ligand per CHO cell; mean EC50 (Strep-tag II–binding sites per cell) of 200000.
